Results from patent publication US20260242478A1 (published 2026).
Where no end group is shown, it is not given here.

B1: Phage-2684 (peptide)
peptide: SEAWCIPSWMCRGD
modifications: cysteine pairing not given here; also: fused to phage pIII (clonal phage display)
notes: Tested as clonal phage supernatant; also called Peptide-180 library clone
B2: Phage-2688 (peptide)
peptide: EAHLCKPLWMCEFG
modifications: cysteine pairing not given here; also: displayed on bacteriophage as fusion to pIII, fusion and linker not given here
notes: as for B1
B3: Phage-2681 (peptide)
peptide: GEKWCTPPWMCMFQ
modifications: cysteine pairing not given here; also: displayed on bacteriophage as fusion to pIII, fusion and linker not given here
notes: as for B1
B4: Phage-2687 (peptide)
peptide: VHYWCIPAWMCNKS
modifications: cysteine pairing not given here; also: displayed on bacteriophage as fusion to pIII, fusion and linker not given here
notes: as for B1
B5: Phage-2690 (peptide)
peptide: LVKWCTPTWMCVGM
modifications: cysteine pairing not given here; also: displayed on bacteriophage as fusion to pIII, fusion and linker not given here
notes: as for B1
B6: Phage-2685 (peptide)
peptide: PMKLCSPPWMCFYD
modifications: cysteine pairing not given here; also: displayed on bacteriophage as fusion to pIII, fusion and linker not given here
notes: as for B1
B7: Phage-2682 (peptide)
peptide: DVKWCIPSWMCQDV
modifications: cysteine pairing not given here; also: displayed on bacteriophage as fusion to pIII, fusion and linker not given here
notes: as for B1
B8: Phage-2680 (peptide)
peptide: DMNWCSPPWMCFGF
modifications: cysteine pairing not given here; also: displayed on bacteriophage as fusion to pIII, fusion and linker not given here
notes: as for B1
B9: Phage-2686 (peptide)
peptide: QNIRCVPPWMCENL
modifications: cysteine pairing not given here; also: displayed on bacteriophage as fusion to pIII, fusion and linker not given here
notes: as for B1
B10: Phage-2695 (peptide)
peptide: HWRMCVPTWMCHLD
modifications: cysteine pairing not given here; also: displayed on bacteriophage as fusion to pIII
B11: Phage-2693 (peptide)
peptide: MGNWCTPSWMCEGL
modifications: cysteine pairing not given here; also: displayed on bacteriophage as fusion to pIII, fusion and linker not given here
notes: as for B1
B12: Phage-2689 (peptide)
peptide: IKPLCSPPWMCSMY
modifications: cysteine pairing not given here; also: displayed on bacteriophage as fusion to pIII, fusion and linker not given here
notes: as for B1
B13: Phage-2694 (peptide)
peptide: GEKWCTPLWMCEWY
modifications: cysteine pairing not given here; also: displayed on bacteriophage as fusion to pIII, fusion and linker not given here
notes: as for B1
B14: Phage-2691 (peptide)
peptide: IVKWCTPPWMCERP
modifications: cysteine pairing not given here; also: displayed on bacteriophage as fusion to pIII, fusion and linker not given here
notes: as for B1
B15: Phage-2683 (peptide)
peptide: EYAWCIPEWMCGWI
modifications: cysteine pairing not given here; also: displayed on bacteriophage as fusion to pIII, fusion and linker not given here
notes: as for B1
B16: Phage-2692 (peptide)
peptide: MEKWCIPQWMCEQF
modifications: cysteine pairing not given here; also: displayed on bacteriophage as fusion to pIII, fusion and linker not given here
notes: as for B1

Legend:
[1] = molecular target: T1, 006 PSMA Fab; test: phage binding ELISA; biotinylated PSMA Fab on neutravidin plate pre-incubated with PSMA antigen as competitor, clonal phage supernatant, anti-M13 HRP detection
T1 construct: also called Anti-PSMA Fab
Description: (§1) Clonal phage were harvested as crude supernatants and screened via standard ELISAs. […] Prior to the addition of clonal phage. wells were incubated with blocking buffer and PSMA antigen or blocking buffer alone. Without washing or aspirating, clonal phage supernatants were then added to the wells and incubated for a short time. Wells were then washed followed by detection of bound phage using a horse radish conjugated anti-M13 antibody.

[2] = molecular target: T1, 006 PSMA Fab; test: phage binding ELISA; biotinylated PSMA Fab on neutravidin plate, clonal phage supernatant, anti-M13 HRP detection; blocking buffer alone;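 further: before phage were added, wells were preincubated with blocking buffer either containing PSMA antigen or without it, and phage were then added with no wash in between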
Description: as §1

[3] = molecular target: T2, PSMA Fab (006 PSMA Fab) (biotinylated (site not given)); test: clonal phage ELISA; biotinylated PSMA Fab on neutravidin plate, blocking buffer alone; anti-M13 HRP detection;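 further: crude clonal phage supernatants added without washing to wells pretreated with blocking buffer with or without PSMA antigen, short incubation, then washed before detecting bound phage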
T2 construct: also called Anti-PSMA Fab; anti-PSMA Fab

[4] = molecular target: T3, PSMA Fab (biotinylated (site not stated)); test: clonal phage ELISA; biotinylated PSMA Fab on neutravidin plate; bound phage detected with anti-M13-HRP
T3 construct: also called Anti-PSMA Fab; 006 PSMA Fab

[5] = molecular target: T3, PSMA Fab; test: clonal phage ELISA; PSMA Fab wells pre-incubated with PSMA antigen as competitor; anti-M13-HRP detection
Description: as §1

Binder	Phage binding ELISA signal, Anti-PSMA Fab [3]	Phage binding ELISA signal, Anti-PSMA Fab [4]	Phage binding ELISA signal, Anti-PSMA Fab with PSMA antigen [5]	further results
FVKWCTPSWMCESQ [Phage-2697]	–	–	–	Phage binding ELISA signal, Anti-PSMA Fab with PSMA antigen [1]: 0.0785; Phage binding ELISA signal, Anti-PSMA Fab [2]: 0.828
B1	0.857	–	–	–
WEKWCTPSGMCDAR [Phage-2627]	–	0.982	0.106	–
B2	0.84	–	–	–
B3	0.861	–	–	–
PETRCIPSWMCSGM [Phage-2625]	–	0.989	0.0912	–
B4	0.841	–	–	–
QVPWCTPAWMCERA [Phage-2702]	–	–	–	Phage binding ELISA signal, Anti-PSMA Fab with PSMA antigen [1]: 0.126; Phage binding ELISA signal, Anti-PSMA Fab [2]: 0.814
FHMWCTPAWMCADQ (cysteine pairing not given here; also: displayed on phage as pIII fusion) [Phage-2622]	–	0.996	0.126	–
DNKMCIPVWMCERF [Phage-2698]	–	–	–	Phage binding ELISA signal, Anti-PSMA Fab with PSMA antigen [1]: 0.0685; Phage binding ELISA signal, Anti-PSMA Fab [2]: 0.824
LNNWCTPLWMCQMF [Phage-2628]	–	0.979	0.201	–
VTKLCIPEWMCASD (cysteine pairing not given here; also: displayed on phage as pIII fusion) [Phage-2630]	–	0.975	0.0961	–
GSHWCEPLWMCSAF [Phage-2699]	–	–	–	Phage binding ELISA signal, Anti-PSMA Fab with PSMA antigen [1]: 0.0853; Phage binding ELISA signal, Anti-PSMA Fab [2]: 0.824
VMSWCVPAWMCETP [Phage-2631]	–	0.973	0.0614	–
B5	0.837	–	–	–
IEKWCTPPWMCESS [Phage-2700]	–	–	–	Phage binding ELISA signal, Anti-PSMA Fab with PSMA antigen [1]: 0.104; Phage binding ELISA signal, Anti-PSMA Fab [2]: 0.824
B6	0.85	–	–	–
VVPRCTPPWMCLVS [Phage-2629]	–	0.976	0.0785	–

Binder	Phage binding ELISA signal, Anti-PSMA Fab [3]	Phage binding ELISA signal, Anti-PSMA Fab [4]	Phage binding ELISA signal, Anti-PSMA Fab with PSMA antigen [5]	further results
B7	0.859	–	–	–
B8	0.873	–	–	–
VEMLCKPAWMCANQ (cysteine pairing not given here; also: displayed on phage as pIII fusion) [Phage-2626]	–	0.986	0.0829	–
DNMLCRPSWMCEGL [Phage-2701]	–	–	–	Phage binding ELISA signal, Anti-PSMA Fab with PSMA antigen [1]: 0.0762; Phage binding ELISA signal, Anti-PSMA Fab [2]: 0.816
B9	0.844	–	–	–
AEKWCIPEWMCEQL [Phage-2632]	–	0.972	0.0717	–
B10	–	–	–	Phage binding ELISA signal, Anti-PSMA Fab with PSMA antigen [1]: 0.15; Phage binding ELISA signal, Anti-PSMA Fab [2]: 0.83
THHWCIPAWMCEQD [Phage-2633]	–	0.967	0.0809	–
EEMWCIPVWMCEHQ [Phage-2696]	–	–	–	Phage binding ELISA signal, Anti-PSMA Fab with PSMA antigen [1]: 0.0935; Phage binding ELISA signal, Anti-PSMA Fab [2]: 0.829
B11	0.833	–	–	–
MTQWCIPEWMCSEE [Phage-2624]	–	0.99	0.0648	–
TPKWCTPPWMCQHG [Phage-2623]	–	0.994	0.0728	–
B12	0.839	–	–	–
B13	0.832	–	–	–
B14	0.834	–	–	–
B15	0.858	–	–	–
B16	0.834	–	–	–
